Measured values reported in paper PMC9198048, “Ursodeoxycholic acid reduces antitumor immunosuppression by inducing CHIP-mediated TGF-β degradation” (Nature Communications, 2022).

Target: T1, Flag-TGF-β1WT (UniProt P04202 30-390)
T1 construct: TGF-β1 expressed from PCMV6-TGF-β1-Flag, constructed from the Origene plasmid PCMV6-TGF-β1-Myc-Flag (MR227339); Origene MR clones are mouse ORF clones as far as I recall; the printed sites T282 and K315 fit the precursor numbering of mouse and human TGF-β1; In cells the protein may be phosphorylated (T282) and ubiquitinated (K315); also called PCMV6-TGF-β1-Flag; source: HEK293T, transfected, in …
T1 sequence (P04202 30-390): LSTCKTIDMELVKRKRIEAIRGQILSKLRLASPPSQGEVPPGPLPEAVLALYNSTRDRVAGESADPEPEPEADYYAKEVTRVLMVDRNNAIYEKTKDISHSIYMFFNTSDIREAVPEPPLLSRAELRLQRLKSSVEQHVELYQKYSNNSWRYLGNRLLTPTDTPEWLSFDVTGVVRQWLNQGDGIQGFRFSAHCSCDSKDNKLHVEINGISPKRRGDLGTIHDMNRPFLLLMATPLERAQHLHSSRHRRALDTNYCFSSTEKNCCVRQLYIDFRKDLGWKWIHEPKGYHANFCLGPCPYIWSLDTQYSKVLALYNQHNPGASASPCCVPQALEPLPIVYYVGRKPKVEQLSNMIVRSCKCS
Test: pull-down; about 1 µg His-CHIP bound to His beads mixed with 1 µg Flag-TGF-β1WT or Flag-TGF-β1T282A, 4 °C overnight, washed three times with cell lysis buffer, immunoblot
Conditions: both partners purified

binding result: binds
B1: His-CHIP (enzyme, UniProt Q9WUD1 1-304, looked up)
chain: MKGKEEKEGGARLGTGGGGSPDKSPSAQELKEQGNRLFVGRKYPEAAACYGRAITRNPLVAVYYTNRALCYLKMQQPEQALADCRRALELDGQSVKAHFFLGQCQLEMESYDEAIANLQRAYSLAKEQRLNFGDDIPSALRIAKKKRWNSIEERRIHQESELHSYLTRLIAAERERELEECQRNHEGHEDDGHIRAQQACIEAKHDKYMADMDELFSQVDEKRKKRDIPDYLCGKISFELMREPCITPSGITYDRKDIEEHLQRVGHFDPVTRSPLTQEQLIPNLAMKEVIDAFISENGWVEDY
notes: also called PCMV6-CHIP-His
